The record followed here is patent US7582460B2 (Wacker Chemie AG, priority 2003, dated 2009).

For test [1], the target named is 3-phosphoglycerate dehydrogenase (PGD). The experiment in a line: Inhibition of PGD activity by L-serine, inhibitor constant Ki. The class given is biochemical, Escherichia coli. The settings on record: Ki = inhibitor concentration at which activity is 50% of activity without inhibitor. The text has this:
(§1) For example, the PGD activity can be determined in analogy with the method described by McKitrick and Pizer (1980, J. Bacteriol. 141:235-245). The backward reaction is used to measure the enzyme activity in an assay sample which contains phosphohydroxypyruvate and NADH/H^+. The reaction is started by adding enzyme and is monitored in a spectrophotometer by way of the decrease in extinction at 340 nm which is caused by oxidation of the NADH/H^+.
(§2) At an optical density of 1.0, serA expression was in each case induced by adding 0.4 mM […] and the culture was incubated for a further 3 hours. The cells were subsequently harvested by centrifugation, washed and resuspended in 2 ml of buffer (100 mM K-phosphate, pH 7.0; 10 mM MgCl2; 1 mM dithiothreitol). The cells were disrupted using a French press (Spectronic Instruments, Inc. Rochester, N.Y., USA) at a pressure of 18 000 psi. The crude extracts were clarified by centrifugation at 30 000 g and PGD activity was determined using the McKitrick and Pizer test (1980, J. Bacteriol. 141:235-245).

Test [2] has as its system 3-phosphoglycerate dehydrogenase (PGD). The test is described as follows: PGD enzyme activity in crude extracts (McKitrick and Pizer test). The conditions noted are these: crude extract of strain expressing plasmid-encoded serA allele; backward reaction, NADH oxidation at 340 nm. The format is biochemical, Escherichia coli.
Source text: as §1, §2

B1: serA49: E. coli PGD variant with replacement G349P (protein, UniProt P0A9T0 2-410, looked up, variant G349P)
D-3-phosphoglycerate …: AKVSLEKDKIKFLLVEGVHQKALESLRAAGYTNIEFHKGALDDEQLKESIRDAHFIGLRSRTHLTEDVINAAEKLVAIGCFCIGTNQVDLDAAAKRGIPVFNAPFSNTRSVAELVIGELLLLLRGVPEANAKAHRGVWNKLAAGSFEARGKKLGIIGYGHIGTQLGILAESLGMYVYFYDIENKLPLGNATQVQHLSDLLNMSDVVSLHVPENPSTKNMMGAKEISLMKPGSLLINASRGTVVDIPALCDALASKHLAGAAIDVFPTEPATNSDPFTSPLCEFDNVLLTPHIGGSTQEAQENIGLEVAGKLIKYSDNGSTLSAVNFPEVSLPLHGGRRLMHIHENRPPVLTALNKIFAEQGVNIAAQYLQTSAQMGYVVIDIEADEDVAEKALQAMKAIPGTIRARLLY
The term Ki denotes a measure of affinity in units of concentration, obtained from inhibition or displacement. A higher Ki goes with lower affinity. Turning to B1, in test [1], the affinity, expressed as Ki, was 6000 µM. For the same molecule, the Activity in test [2] came to 0.05 units/mg.

B2: serA410: E. coli PGD variant with replacement G349S (protein, UniProt P0A9T0 2-410, looked up, variant G349S)
D-3-phosphoglycerate …: AKVSLEKDKIKFLLVEGVHQKALESLRAAGYTNIEFHKGALDDEQLKESIRDAHFIGLRSRTHLTEDVINAAEKLVAIGCFCIGTNQVDLDAAAKRGIPVFNAPFSNTRSVAELVIGELLLLLRGVPEANAKAHRGVWNKLAAGSFEARGKKLGIIGYGHIGTQLGILAESLGMYVYFYDIENKLPLGNATQVQHLSDLLNMSDVVSLHVPENPSTKNMMGAKEISLMKPGSLLINASRGTVVDIPALCDALASKHLAGAAIDVFPTEPATNSDPFTSPLCEFDNVLLTPHIGGSTQEAQENIGLEVAGKLIKYSDNGSTLSAVNFPEVSLPLHGGRRLMHIHENRPSVLTALNKIFAEQGVNIAAQYLQTSAQMGYVVIDIEADEDVAEKALQAMKAIPGTIRARLLY
Take B2: the affinity in test [1], expressed as Ki, was 2000 µM. Besides, the Activity in test [2] is listed as 0.04 units/mg.

B3: serA223: E. coli PGD variant with replacement T372E (protein, UniProt P0A9T0 2-410, looked up, variant T372E)
D-3-phosphoglycerate …: AKVSLEKDKIKFLLVEGVHQKALESLRAAGYTNIEFHKGALDDEQLKESIRDAHFIGLRSRTHLTEDVINAAEKLVAIGCFCIGTNQVDLDAAAKRGIPVFNAPFSNTRSVAELVIGELLLLLRGVPEANAKAHRGVWNKLAAGSFEARGKKLGIIGYGHIGTQLGILAESLGMYVYFYDIENKLPLGNATQVQHLSDLLNMSDVVSLHVPENPSTKNMMGAKEISLMKPGSLLINASRGTVVDIPALCDALASKHLAGAAIDVFPTEPATNSDPFTSPLCEFDNVLLTPHIGGSTQEAQENIGLEVAGKLIKYSDNGSTLSAVNFPEVSLPLHGGRRLMHIHENRPGVLTALNKIFAEQGVNIAAQYLQESAQMGYVVIDIEADEDVAEKALQAMKAIPGTIRARLLY
Take B3: the Activity in test [2] is on record as 0.04 units/mg.

B4: serA234: E. coli PGD variant with replacement T372K (protein, UniProt P0A9T0 2-410, looked up, variant T372K)
D-3-phosphoglycerate …: AKVSLEKDKIKFLLVEGVHQKALESLRAAGYTNIEFHKGALDDEQLKESIRDAHFIGLRSRTHLTEDVINAAEKLVAIGCFCIGTNQVDLDAAAKRGIPVFNAPFSNTRSVAELVIGELLLLLRGVPEANAKAHRGVWNKLAAGSFEARGKKLGIIGYGHIGTQLGILAESLGMYVYFYDIENKLPLGNATQVQHLSDLLNMSDVVSLHVPENPSTKNMMGAKEISLMKPGSLLINASRGTVVDIPALCDALASKHLAGAAIDVFPTEPATNSDPFTSPLCEFDNVLLTPHIGGSTQEAQENIGLEVAGKLIKYSDNGSTLSAVNFPEVSLPLHGGRRLMHIHENRPGVLTALNKIFAEQGVNIAAQYLQKSAQMGYVVIDIEADEDVAEKALQAMKAIPGTIRARLLY
As to B4, the Activity in test [2] is listed as 0.05 units/mg.

B5: serA229: E. coli PGD variant with replacement T372R (protein, UniProt P0A9T0 2-410, looked up, variant T372R)
D-3-phosphoglycerate …: AKVSLEKDKIKFLLVEGVHQKALESLRAAGYTNIEFHKGALDDEQLKESIRDAHFIGLRSRTHLTEDVINAAEKLVAIGCFCIGTNQVDLDAAAKRGIPVFNAPFSNTRSVAELVIGELLLLLRGVPEANAKAHRGVWNKLAAGSFEARGKKLGIIGYGHIGTQLGILAESLGMYVYFYDIENKLPLGNATQVQHLSDLLNMSDVVSLHVPENPSTKNMMGAKEISLMKPGSLLINASRGTVVDIPALCDALASKHLAGAAIDVFPTEPATNSDPFTSPLCEFDNVLLTPHIGGSTQEAQENIGLEVAGKLIKYSDNGSTLSAVNFPEVSLPLHGGRRLMHIHENRPGVLTALNKIFAEQGVNIAAQYLQRSAQMGYVVIDIEADEDVAEKALQAMKAIPGTIRARLLY
As for B5, the Activity in test [2] is on record as 0.04 units/mg.

B6: serA206: E. coli PGD variant with replacement T372P (protein, UniProt P0A9T0 2-410, looked up, variant T372P)
D-3-phosphoglycerate …: AKVSLEKDKIKFLLVEGVHQKALESLRAAGYTNIEFHKGALDDEQLKESIRDAHFIGLRSRTHLTEDVINAAEKLVAIGCFCIGTNQVDLDAAAKRGIPVFNAPFSNTRSVAELVIGELLLLLRGVPEANAKAHRGVWNKLAAGSFEARGKKLGIIGYGHIGTQLGILAESLGMYVYFYDIENKLPLGNATQVQHLSDLLNMSDVVSLHVPENPSTKNMMGAKEISLMKPGSLLINASRGTVVDIPALCDALASKHLAGAAIDVFPTEPATNSDPFTSPLCEFDNVLLTPHIGGSTQEAQENIGLEVAGKLIKYSDNGSTLSAVNFPEVSLPLHGGRRLMHIHENRPGVLTALNKIFAEQGVNIAAQYLQPSAQMGYVVIDIEADEDVAEKALQAMKAIPGTIRARLLY
The molecule B6 had an Activity in test [2] of 0.05 units/mg.

B7: serA411: E. coli PGD variant with replacement G349T (protein, UniProt P0A9T0 2-410, looked up, variant G349T)
D-3-phosphoglycerate …: AKVSLEKDKIKFLLVEGVHQKALESLRAAGYTNIEFHKGALDDEQLKESIRDAHFIGLRSRTHLTEDVINAAEKLVAIGCFCIGTNQVDLDAAAKRGIPVFNAPFSNTRSVAELVIGELLLLLRGVPEANAKAHRGVWNKLAAGSFEARGKKLGIIGYGHIGTQLGILAESLGMYVYFYDIENKLPLGNATQVQHLSDLLNMSDVVSLHVPENPSTKNMMGAKEISLMKPGSLLINASRGTVVDIPALCDALASKHLAGAAIDVFPTEPATNSDPFTSPLCEFDNVLLTPHIGGSTQEAQENIGLEVAGKLIKYSDNGSTLSAVNFPEVSLPLHGGRRLMHIHENRPTVLTALNKIFAEQGVNIAAQYLQTSAQMGYVVIDIEADEDVAEKALQAMKAIPGTIRARLLY
B7 registered a Ki in test [1] of 3000 µM. Further, the Activity in test [2] is on record as 0.04 units/mg.

B8: serA21: E. coli PGD variant with replacement T372D (protein, UniProt P0A9T0 2-410, looked up, variant T372D)
D-3-phosphoglycerate …: AKVSLEKDKIKFLLVEGVHQKALESLRAAGYTNIEFHKGALDDEQLKESIRDAHFIGLRSRTHLTEDVINAAEKLVAIGCFCIGTNQVDLDAAAKRGIPVFNAPFSNTRSVAELVIGELLLLLRGVPEANAKAHRGVWNKLAAGSFEARGKKLGIIGYGHIGTQLGILAESLGMYVYFYDIENKLPLGNATQVQHLSDLLNMSDVVSLHVPENPSTKNMMGAKEISLMKPGSLLINASRGTVVDIPALCDALASKHLAGAAIDVFPTEPATNSDPFTSPLCEFDNVLLTPHIGGSTQEAQENIGLEVAGKLIKYSDNGSTLSAVNFPEVSLPLHGGRRLMHIHENRPGVLTALNKIFAEQGVNIAAQYLQDSAQMGYVVIDIEADEDVAEKALQAMKAIPGTIRARLLY
Molecule B8 showed an Activity in test [2] of 0.05 units/mg.
